According to the DeepSol protein solubility set:

assay: soluble on expression in E. coli; label from the status in PepcDB or PDB records

Row | Sequence | soluble on expression in E. coli
1 | MTESTSLDELFKDRYSQNDERYKKMSETGFEPVIVVHPWEPRRNNNYRNRGNFGGGRGGGYQHRDNSNRGGWVPRGGGQRGGYRGGWQDRGGHRGGGGWQDRGGQRQPYRGGDRRRQYND | soluble
2 | MSLNKEQLKSLVIKTIDENREKILKIGQGIYKNPEYGYKEFKTTEAVSNFFEQELNLSVEKNIAVTGCKADANSSKKGPHISILGELDGISCKEHKDANEIGASHTCGHNIQIAGMLGAAVGLVKSGVLEHLDGKVSFMATPAEEFIELEYREQLKKEGKITYFGGKQELIKRGYFDDIDISMMFHASDLGEDKALVGPESNGFVGKKVKFIGKESHAGSAPHDGINALNAAMLAINNVNALRETFKESERVRFHPIITKGGDIVNVVPADVHMESYVRARTINGMIDANERINKALMAGGMAVGADVEITEIPGYLPILRYKSLDNLFKNNLEDLGLKGKVIDGGDFTGSFDFGDVSHIMPTLHPMIGGVKGALHTRDFEIVDEDLAYIIPAKAMALTVVDLLFDNAKDAKDILDTFTPVMTKKEYLTFLEKHDKTEGHHHHHH | soluble
3 | MGSDKIHHHHHHMAAIAGLYVYPIKGLDSEHRSTATLRTHGQLHHDRTFTLVDSDTGSIVTAKRRPALHAFRTDYEPETGTLTVTDPDGQRASFSLGDDEGLSAAGDWFDSRLAVSVSMRSDPTGFVDRSDMGPAVVSTATLEAIADWFDSMTVAGARRRLRANIEIEGVPAFWEDRFVGDGAPAFEVGGVRFEGVTPCNRCVVPSRDPDTGEQLPEFRKTFCANRERTFPEWADGDAFDHEYAAMILARAPDISGGETLAVGDGVAVLDEAA | not soluble
4 | MFGYPGGAVLDIYDALHTVGGIDHVLVRHEQAAVHMADGLARATGDVGVVLVTSGPGATNAITGIATAYMDSIPLVILSGQVATSLIGYDAFQECDMVGISRPVVKHSFLVKQTEDIPLVLKKAFWLAASGRPGPVVVDLPKDILNPAKKMPYAWPETVSMRSYNPTTSGHKGQIKRALQTLASAKKPVVYVGGGAISAACYAPLRHIIETFNLPVVSSLMGLGAFPATHRQSLGMLGMHGTYEANMTMHNADVIFAVGVRFDDRTTNNLAKYCPNATVLHIDIDPTSISKTVNADIPVVGDARLVLEQMLELLAQDAPSQPQDDIRDWWQQIESWRARQCLKYDAESESIKPQAVIETLWRLTKGDAYVTSDVGQHQMFAALYYPFDKPRRWINSGGLGTMGFGLPAALGVKMALPKEMVVCVTGDGSIQMNIQELSTALQYELPVLVLNLNNRYLGMVKQWQDMIYSGRHSQSYMQSLPDFVRLAEAYGHVGLQINRPDELESKLSEALEHVRNNRLVFVDVTVDGSEHVYPMQIRGGGMDEMWLSKTERT | not soluble
5 | MSLDSFLDIQRKKADADSKFIDCNGFRVHYKRYGSGKPPFIVLLHGSFLSIRSWRDVAVPLAENATVLAFDRPAFGLTSRPVPSRSNAARYSPEAQSDLVVALMDKLGMDRAVIVGNSTGGTLALLTALRHPRRVQGLVLVGAMIYSGYANSEVPAVMKPFMKAMSPVFSRLMKVIITKLYDKNIRGFWHVKSRLSDETLAAFRNDFMVGDWSRGFWELFLETHRLYFNRRVSSAWAPSLVVTGEHDLTVKTEESFRLARELPRAELLVIPDCAHLPQEEQPAAFVAGVKKFVEKLVEGHHHHHH | soluble
6 | QADAGPDKELTLPVDSTTLDGSKSSDDQKIISYLWEKTQGPDGVQLENANSSVATVTGLQVGTYVFTLTVKDERNLQSQSSVNVIVKEE | soluble
7 | MGSDKIHHHHHHMGIKYSFTRELRTELIDVDKVFKENLLPWWDDIYNYIKMLNEDFTWNQLPPLVYIVYRYLGLDRSISISMTNIFKTLYLANSIHGMVKDDKEGQKYDQDLQFAILIGDYMFGRMLKLLVEAGADKLVGLFAVMMAEINEGQVMERKLQAAHKDVLQKTRGSIYATAFETAGHLSGMKGILLENCRQLGLNLGMSIELMNCDISREEVLVYIHEAERNYKIINQYQRMVNSNLEAAINEVHSLLCNIENVAVV | not soluble
8 | MLRYFRAFLPKEERFFDLFAQHTHTVVQGAQALQDMLRGGDETLVHCQRVSHFESEADNITREVLTAVRRTFITPFDRVDIKNLITSMDDAIDQMQQTAKAVILFEVREFEPPMREIGTLLVESANLVGRAVPLMQSIGPNLQMLTAMTEEITKLEGRVDDLHDIGLKELFLKHRNANTMDYIVGAEIYDHLEKVADRFDDVANEINSIVIEQVAAALEHHHHHH | soluble
9 | MSSNPSSVEKKLLHYTGKAIADFNMIQRGDRVMVCLSGGKDSFTLLTILNQLRIKSGNKFEIFAFTLDQAQPGWNDACLRQWLAEKSIPHEILTRDTYSIVKEKIPEGKTYCSLCSRLRRGIIYRYAEENGFNKIALGHHRDDLVRTLMMSILYNGDIRSMPPKLLSDNKKHIVIRPLCYVQEKDIITFASEQAFPIIPCNLCGSQENLMRKKVASLIDQLAIENPKVPSNMLHALQSLKPSQLMDQNFWNFKNLEDGLETTQSIQCEEVFNAQEFELEDEKI | not soluble
10 | MSLRANCLVQTTEWSACSKTCGMGISTRVTNDNASCRLEKQSRLCMVRPCEADLEENIKKGKKCIRTPKISKPIKFELSGCTSMKTYRAKFCGVCTDGRCCTPHRTTTLPVEFKCPDGEVMKKNMMFIKTCACHYNCPGDNDIFESLYYRKMYGDMAEGHHHHHH | not soluble
11 | MGEIESYCNKELGPLPTKAPTLSKNVLDLFSLKGKVASVTGSSGGIGWAVAEAYAQAGADVAIWYNSHPADEKAEHLQKTYGVHSKAYKCNISDPKSVEETISQQEKDFGTIDVFVANAGVTWTQGPEIDVDNYDSWNKIISVDLNGVYYCSHNIGKIFKKNGKGSLIITSSISGKIVNIPQLQAPYNTAKAACTHLAKSLAIEWAPFARVNTISPGYIDTDITDFASKDMKAKWWQLTPLGREGLTQELVGGYLYLASNASTFTTGSDVVIDGGYTCP | soluble
12 | MSLTDKPQAEVIAVYPNKVKICVDDLGSFTEGHPLLRVGSYLRVTDHEDCILIAIIESFLIEVDDRKNRRHVIEALPLGVIKDDKFIRGGDALTIPPTGVAPATIQDIKKIFEDSVPTNRKFEFSSLVTDPDIRVPVDGNRFFNKHIAVVGSTGAGKSNTVTRIIQTSTTKTPSGTQNNSHAIIFDIHSEYKAAFPHANHIDINSLNLPYWLLNSDELEEVLLDTGERDNYNQSSVFRYLVTENKKKHNEGHHHHHH | not soluble
13 | MSLGEEFHRNRTRFTKDPRVKSQDLLILALMDNQLRPTLHYQAQNPHRRVLVTGATGYIGGRLITELLAAGFQVRATSRKKTSLQRFDWYEDVEAVEADLTDATELDTLFKDVDVVYYLVHSMGGKNVDFEEQEQRTAENVIQAADQAGIKQIVYLSGLHPRNRKIEELSKHMRSREKVAQILLAGQTPALILRAATIIGSGSASFEIIRHLTERLPRMIAPQWITNQIEPLAIRDVLHYLISAADLKDPVNRSCDIGCGKSYEFADLLRIYADVRGLKRHVNSVPLNLPMDKLSGLWISLVTPVPFQLSFPLAQSMAEDAVTEEHSIKDIISDPPDGFIEYREAVELALAAEFDRGVPTSWDRSWTVQQPWAGQPTDPEWAGKAVYEDVRTEDTDLRAAQVWPIIEGLGGVNGWYSAPLLWRLRGIADRLIGGPGLGGRRDPRHLKLGDRIDWWRVTEIDPPHRLVLTAEMKVDGGAWLILEVADKENGGCTYTQRAIFEPKGEGHHHHHH | not soluble
14 | MSLDIKQLKFLIALDQTRHFGQAAALCHITQPTLSMRLRNLEDELDLVLVKRGQRFEGFTEAGERILAWARTLLAAHDGLQAEAASCRGQVVGSLRLGTVPLASFNPMHLLLPLREKYPELHFQLSSLSSEQVIDGLSRNQLDLGICYLDQVNTSFFEVIELGTTTMGLLHDTRHFQFTSDRLRWDELGDIPLGLLSKGMHYRQSLDLSFRSRGLEPNAVLESDSSFQLIQAINTGICCAIMPLDCGLEDLSEHLRIVPVADAAIHSPVGLLLRRSEPRSAIAEQCFAEARGLFQASEGHHHHHH | soluble
15 | MAHHHHHHMLKRYERTKLNVLRGERFLRLCEVSYRAVCRDPSLGGAEGIANIEDRTWEMVQRTFQASPERCSLKNAPFSVDGVEICALLRRPDNVFLILVAQYRPPVDAVVLEFPAGLVDNGEDVKSAALRELKEETGYVATEENIISVTDALCCEPGMTDSCCKFVRLFVDGEKEVNRFPQQELDEGEDIEVILLPISLKKGVAGGDTPLQSLNKLLHEKNKGQQRNIVDAKLYMFLDGLSQMSTMFC | soluble
16 | MSMDISDFYQTFFDEADELLADMEQHLLDLVPESPDAEQLNAIFRAAHSIKGGAGTFGFTILQETTHLMENLLDEARRGEMQLNTDIINLFLETKDIMQEQLDAYKNSEEPDAASFEYICNALRQLALEAKGETTPAVRSHHHHHH | soluble
